Substitutions are numbered along the chain they refer to. In names and notes the source's numbering stands.

To fix the notation:
B1: IKKα W651A-Flag (LIR-mutated IKKα) (enzyme)
chain: MERPPGLRPGAGGPWEMRERLGTGGFGNVCLYQHRELDLKIAIKSCRLELSTKNRERWCHEIQIMKKLNHANVVKACDVPEELNILIHDVPLLAMEYCSGGDLRKLLNKPENCCGLKESQILSLLSDIGSGIRYLHENKIIHRDLKPENIVLQDVGGKIIHKIIDLGYAKDVDQGSLCTSFVGTLQYLAPELFENKPYTATVDYWSFGTMVFECIAGYRPFLHHLQPFTWHEKIKKKDPKCIFACEEMSGEVRFSSHLPQPNSLCSLVVEPMENWLQLMLNWDPQQRGGPVDLTLKQPRCFVLMDHILNLKIVHILNMTSAKIISFLLPPDESLHSLQSRIERETGINTGSQELLSETGISLDPRKPASQCVLDGVRGCDSYMVYLFDKSKTVYEGPFASRSLSDCVNYIVQDSKIQLPIIQLRKVWAEAVHYVSGLKEDYSRLFQGQRAAMLSLLRYNANLTKMKNTLISASQQLKAKLEFFHKSIQLDLERYSEQMTYGISSEKMLKAWKEMEEKAIHYAEVGVIGYLEDQIMSLHAEIMELQKSPYGRRQGDLMESLEQRAIDLYKQLKHRPSDHSYSDSTEMVKIIVHTVQSQDRVLKELFGHLSKLLGCKQKIIDLLPKVEVALSNIKEADNTVMFMQGKRQKEIAHLLKIACTQSSARSLVGSSLEGAVTPQTSAWLPPTSAEHDHSLSCVVTPQDGETSAQMIEENLNCLGHLSTIIHEANEEQGNSMMNLDWSWLTE
notes: also called LIR-mutated IKKα variant; pCDH-CMV-MCS-EF1-Puro-IKKα W651A-Flag; not shown: Flag tag
B2: endogenous syntaxin 17 (STX17) of MIA PaCa-2 cells (other, human, UniProt P56962 2-302, looked up)
chain: SEDEEKVKLRRLEPAIQKFIKIVIPTDLERLRKHQINIEKYQRCRIWDKLHEEHINAGRTVQQLRSNIREIEKLCLKVRKDDLVLLKRMIDPVKEEASAATAEFLQLHLESVEELKKQFNDEETLLQPPLTRSMTVGGAFHTTEAEASSQSLTQIYALPEIPQDQNAAESWETLEADLIELSQLVTDFSLLVNSQQEKIDSIADHVNSAAVNVEEGTKNLGKAAKYKLAALPVAGALIGGMVGGPIGLLAGFKVAGIAAALGGGVLGFTGGKLIQRKKQKMMEKLTSSCPDLPSQTDKKCS
notes: also called endogenous STX17
B3: IKKα Y568A-Flag (LIR-mutated IKKα) (enzyme)
chain: B1 chain with Y568A, A651W
notes: also called LIR-mutated IKKα variant; pCDH-CMV-MCS-EF1-Puro-IKKα Y568A-Flag; not shown: Flag tag
B4: endogenous VAMP8 of MIA PaCa-2 cells (other, human, UniProt Q9BV40 1-100, looked up)
chain: MEEASEGGGNDRVRNLQSEVEGVKNIMTQNVERILARGENLEHLRNKTEDLEATSEHFKTTSQKVARKFWWKNVKMIVLICVIVFIIILFIVLFATGAFS

Experiment [1] addresses endogenous LC3 (microtubule-associated protein light chain 3) of MIA PaCa-2 cells (human, UniProt Q9GZQ8 1-120). The experiment can be described thus: co-IP in starved IKKα-ablated MIA PaCa-2 cells (FIG. 14C).
Experiment [2] has as its target B1. The description is as above.
Experiment [3] has as its target B3. The experiment is described as above.
In experiment [4] the target is B2. The experiment can be described thus: co-IP with STX17, IKKα-ablated MIA PaCa-2 cells re-expressing wt IKKα (FIG. 14D).

On to B1, for which the binding result in experiment [1] is recorded as “no binding”.

Consider B2, for which the binding result in experiment [2] and in experiment [3] was “no binding” in each case.

B3: in experiment [1], the binding result is “no binding”.

As to B4, the binding result in experiment [4] was “binds”.
